{
  "source": "patent US9333268B2",
  "about": "“Methods of treatment with arginine deiminase” (Polaris Group, priority 2012, dated 2016)",
  "key": {"[1]": {"tested_on": "ASS-negative SCLC cell line SK-LC-13", "assay": "MTS proliferation assay, adherent cells", "format": "cell-based, human", "settings": "0 to 10 mIU ml^−1, 120 h", "protocol": "(§1) To assess the anti-proliferative effect of ADI-PEG 20 on adherent cells, cells were plated a density of 2×10^3 cells per well in a tissue culture 96-microwell plate and allowed to adhere overnight. The following day, cells were treated with ADI-PEG 20 (DesigneRx Pharmaceuticals, Vacaville, Calif., USA, a subsidiary of Polaris Group, San Diego, Calif., USA) ranging from 0 to 10 mIU ml^−1. After incubation for 120 h, cell viability was determined using (3-(4,5-dimethylthiazol-2-yl)-5-(3-carboxymethoxyphenyl)-2-(4-sulfophenyl)-2H-tetrazolium) (MTS, CellTiter 96 AQueous One Solution, Promega, Madison, Wis., USA), according to the manufacturers protocol. Twenty microliters of MTS reagent was added to the appropriate control and assay wells before the plate was incubated for 2 h at 37° C. and absorbance read at 490 nm. Absolute absorbance for each treatment was determined by subtracting the background MTS absorbance, and the mean and standard deviation was calculated. The effect of the autophagy inhibitor chloroquine (Sigma) on cell proliferation was assessed using the MTS assay."}, "[2]": {"tested_on": "ASS-negative SCLC cell line SW1271", "assay": "MTS proliferation assay, adherent cells", "format": "cell-based, human", "settings": "0 to 10 mIU ml^−1, 120 h", "protocol": "as §1"}, "ASS-negative AML lines": {"tested_on": "ASS-negative AML lines", "assay": "Viability of AML cell lines treated with ADI-PEG 20", "format": "cell-based", "protocol": "(§2) In this example, it was determined whether ASS negativity would predict for the efficacy of pegylated arginine deiminase (ADI-PEG 20) using AML cell lines and primary AML samples. A lack of ASS protein was identified in three of seven leukemic cell lines (K562, Kasumi and KG-1) and in all nine samples from patients with cytogenetically normal and abnormal karotype AML. Methylation of the ASS promoter correlated with reduced levels of ASS mRNA and absence of ASS expression.\n(§3) Primary ASS-negative AML samples with good engraftment in NOD/SCID mice have been identified and studies of the efficacy of ADI-PEG 20 using this primary AML xenograft model have begun. Based on the results described herein and the potential efficacy with low toxicity of arginine deprivation in humans, a phase II trial of ADI-PEG 20 has been planned in patients with relapsed AML."}, "[3]": {"tested_on": "ASS-positive control lines, Fujioka and U937", "assay": "Viability of AML cell lines treated with ADI-PEG 20", "format": "cell-based", "protocol": "as §2, §3"}, "NCI-H69 xenografts": {"tested_on": "NCI-H69 xenografts", "assay": "ASS-positive NCI-H69 SCLC xenografts in BALB/c-nude mice", "format": "in vivo", "settings": "five doses of 2 IU over 20 days, intraperitoneal", "protocol": "(§4) The activity of ADI-PEG 20 was also assessed in mice bearing ASS-positive NCI-H69 SCLC xenografts. Small cell lung cancer xenografts were established in female BALB/c-nude mice, 3-4 weeks of age weighing ˜20 g (Charles River Labs, Wilmington, Mass., USA). To establish the tumors, 10×10^6 cells in media were mixed 1:1 with Matrigel High Concentration (BD Biosciences) and injected subcutaneously in the abdominal area of the mice. Tumor growth was regularly measured and tumor volume calculated using the formula (TV=(length×width^2)/2). All animal studies were approved by the MSKCC Institutional Animal Care and Use Committee. Mice were euthanized when tumors reached an approximate volume of 1,000 mm^3.\nThe anti-tumor efficacy of ADI-PEG 20 was simultaneously assessed in mice bearing either moderate or large SK-LC-13 SCLC xenografts. In the first study, treatment was initiated once tumors had reached an average size of 125 mm^3. In the large xenograft study, treatment was initiated once tumors had reached an average size of 500 mm^3. Arginine deiminase-PEG20 was administered at doses of 1, 2 and 5 IU per animal once every 5 days for 20 days (five doses). […] Additionally, the efficacy of ADI-PEG 20 was assessed in mice bearing ASS-positive NCI-H69 xenografts. […]"}, "SK-LC-13 xenografts": {"tested_on": "SK-LC-13 xenografts", "assay": "Large SK-LC-13 SCLC xenografts in BALB/c-nude mice", "format": "in vivo", "protocol": "as §4\n(§5) The anti-tumor efficacy of ADI-PEG 20 was simultaneously assessed in mice bearing either moderate or large SK-LC-13 SCLC xenografts. In the first study, treatment was initiated once tumors had reached an average size of 125 mm^3. In the large xenograft study, treatment was initiated once tumors had reached an average size of 500 mm^3. Arginine deiminase-PEG20 was administered at doses of 1, 2 and 5 IU per animal once every 5 days for 20 days (five doses). To assess the effect of sustained dosing, further groups (n=5) at all dose levels received continued administration of ADI-PEG 20 every 5 days until tumors progressed to the 1,000 mm^3 size limit. Additionally, the efficacy of ADI-PEG 20 was assessed in mice bearing ASS-positive NCI-H69 xenografts. Here, mice received five doses of 2 IU ADI-PEG 20 for 20 days once tumor had reached an average size of 150 mm^3. Arginine deiminase-PEG20 was administered by intraperitoneal injection in all studies. The specific activity of ADI-PEG 20 used in these studies is 9 IU mg^−1 of protein. Thus, 1 IU of ADI-PEG 20 per 20 g mouse is equivalent to 160 IU m^−2.\nEfficacy of ADI-PEG 20 treatment in vivo was assessed by comparing means of control and treatment groups using unpaired two-tailed t-tests at the termination of control groups using GraphPad Prism (Version 5.0, GraphPad Software Inc., La Jolla, Calif., USA)."}, "[4]": {"tested_on": "ASS low expressing osteosarcoma cell line MNNG", "assay": "Xenograft of osteosarcoma cell line MNNG in nude mice", "format": "in vivo", "settings": "compared to PBS treated controls"}, "[5]": {"tested_on": "sarcoma cell lines with low expression of ASS", "assay": "Sarcoma cell line panel treated with ADI-PEG 20", "format": "cell-based"}, "SK-LC-13 cells": {"tested_on": "SK-LC-13 cells", "assay": "FACS analysis of apoptosis by sub-G1 DNA content (propidium iodide)", "format": "cell-based, human", "protocol": "Apoptosis was measured by FACS of propidium-iodide-stained cells as detailed by Riccardi et al (Riccardi and Nicoletti, Nat Protoc 1(3):1458-1461, 2006). Cells were plated in 24-well plates and treated with ADI-PEG 20 for […]. Cells were then harvested, washed and fixed in 70% ethanol. DNA was then stained using 20 μg ml^−1 propidium iodide containing 10 μgml^−1 DNAse-free RNAse A (Sigma-Aldrich). Cells were then read on a BD FACSCalibur (BD Biosciences) and analyzed using Flow Jo Software (Tree Star, Ashland, Oreg., USA).\nIn order to determine the possible mechanism of the antiproliferative effects of ADI-PEG 20 a FACS analysis of apoptosis by sub-G1 DNA content was performed. Cells were treated for 72 h before the analysis was performed."}, "[6]": {"assay": "Specific activity of ADI-PEG 20", "format": "biochemical", "protocol": "as §5"}, "[7]": {"settings": "in the mice; cited from earlier work"}, "[8]": {"tested_on": "ASS-positive colon carcinoma cell line SW1222", "assay": "MTS proliferation assay, adherent cells", "format": "cell-based", "settings": "0 to 10 mIU ml^−1, 120 h", "protocol": "as §1"}},
  "data": [
    {"molecule": "ADI-PEG 20: arginine deiminase (ADI) formulated with PEG of 20,000 m.w. (protein) MSVFDSKFNGIHVYSEIGELETVLVHEPGREIDYITPARLDELLFSAILESHDARKEHQSFVKIMKDRGINVVELTDLVAETYDLASKAAKEEFIETFLEETVPVLTEANKEAVRAFLLSKPTHEMVEFMMSGITKYELGVESENELIVDPMPNLYFTRDPFASVGNGVTIHFMRYIVRRRETLFARFVFRNHPKLVKTPWYYDPAMKMSIEGGDVFIYNNETLVVGVSERTDLDTITLLAKNIKANKEVEFKRIVAINVPKWTNLMHLDTWLTMLDKNKFLYSPIANDVFKFWDYDLVNGGAEPQPQLNGLPLDKLLASIINKEPVLIPIGGAGATEMEIARETNFDGTNYLAIKPGLVIGYDRNEKTNAALKAAGITVLPFHGNQLSLGMGNARCMSMPLSRKDVKW", "values": [
      {"measurement": "proliferation", "setting": "[1]", "value": "clear dose-dependent decrease in proliferation"},
      {"measurement": "proliferation", "setting": "[2]", "value": "clear dose-dependent decrease in proliferation"},
      {"measurement": "viability", "setting": "ASS-negative AML lines", "value": "reduced the viability"},
      {"measurement": "viability (response to drug-induced arginine deprivation)", "setting": "[3]", "value": "resistant"},
      {"measurement": "tumor growth", "setting": "NCI-H69 xenografts", "value": "did not produce any effect on tumor growth"},
      {"measurement": "tumor growth", "setting": "SK-LC-13 xenografts; 1, 2 and 5 IU, tumors 473.4±161.0 mm^3 at start", "value": "dose-dependent inhibition of tumor growth"},
      {"measurement": "tumor volume relative to control mice", "setting": "SK-LC-13 xenografts; 1 IU, continued treatment, day 32 (P=0.007)", "value": "significantly reduce the tumor volume"},
      {"measurement": "tumor volume, continued relative to short-course treatment", "setting": "SK-LC-13 xenografts; 1 IU, day 39", "value": "moderately significant (P=0.26) reduction in tumor volume"},
      {"measurement": "tumor size relative to control mice", "setting": "SK-LC-13 xenografts; 1 IU, short-course, day 32 (P=0.07)", "value": "did not result in a statistical significant reduction"},
      {"measurement": "tumor volume relative to untreated controls", "setting": "SK-LC-13 xenografts; 2 IU, continued (P=0.0007)", "value": "significant reduction of tumor volume"},
      {"measurement": "tumor volume relative to untreated controls", "setting": "SK-LC-13 xenografts; 2 IU, short (P=0.004)", "value": "significant reduction of tumor volume"},
      {"measurement": "responses, continued dosing relative to short-course", "setting": "SK-LC-13 xenografts; 2 and 5 IU", "value": "did not significantly improve responses"},
      {"measurement": "tumor volume relative to untreated controls", "setting": "SK-LC-13 xenografts; 5 IU, continued (P=0.0001)", "value": "significant reduction of tumor volume"},
      {"measurement": "tumor volume relative to untreated controls", "setting": "SK-LC-13 xenografts; 5 IU, short (P=0.0003)", "value": "significant reduction of tumor volume"},
      {"measurement": "tumor growth rate", "setting": "[4]", "value": "significantly slower tumor growth rate"},
      {"measurement": "cell cycle and apoptosis", "setting": "[5]; ASS expression low", "value": "cell cycle arrest but not apoptosis"},
      {"measurement": "autophagy", "setting": "[5]; sarcomas that lack ASS", "value": "induced autophagy"},
      {"measurement": "IC50", "setting": "[5]; sensitive cell lines with low expression of ASS", "value": "0.02 to 0.1", "unit": "µg/mL"},
      {"measurement": "cells in apoptosis (sub-G1 DNA content)", "setting": "SK-LC-13 cells; 1.0 mIU ml^−1, 72 h", "value": "~6", "unit": "%"},
      {"measurement": "cells in apoptosis (sub-G1 DNA content)", "setting": "SK-LC-13 cells; 10 mIU ml^−1, 72 h", "value": "~16", "unit": "%"},
      {"measurement": "specific activity", "setting": "[6]", "value": "9 IU mg^−1 of protein"},
      {"measurement": "half-life", "setting": "[7]", "value": "~170", "unit": "h"},
      {"measurement": "growth", "setting": "[8]", "value": "No effect"}
    ]}
  ]
}
